Assays:
[1] = system: T1, oligopeptide sequence GNWPWDWGWDWPWNWG (SEQ ID NO:8) tethering TCPP to the nanoparticle
T1 sequence: GNWPWDWGWDWPWNWG

[2] = system: T2, oligopeptide sequence GNwPwDwGwDwPwNwG (SEQ ID NO:9) tethering TCPP to the nanoparticle
T2 sequence: GNWPWDWGWDWPWNWG

[3] = system: T3, oligopeptide sequence GRARQRLRARQG (SEQ ID NO:7) tethering TCPP to the nanoparticle
T3 sequence: GRARQRLRARQG

[4] = system: T4, Cyanine 5.5 linked GR7G peptide (SEQ ID NO:5) on nanoplatform 1 / nanoplatform 2
T4 sequence: GRRRRRRRG

[5] = system: T5, oligopeptide sequence GRRRRRRRG (SEQ ID NO:5) tethering TCPP to the nanoparticle
T5 sequence: GRRRRRRRG

tryptophan 2,3-dioxygenase
calibration of nanoplatform fluorescence after 60 min. of incubation in HEPES buffer [1]: the concentration of TDO can be determined over the whole range from 10^-7 to 10^-16 M | calibration of nanoplatform fluorescence after 60 min. of incubation in HEPES buffer [2]: TDO does not react with the substrate GNwPwDwGwDwPwNwG (SEQ ID NO:9), because it is specific for L-tryptophan

indoleamine 2,3-dioxygenase 1
limit of detection, nanoplatform fluorescence after 60 min. of incubation in HEPES buffer [1]: the LOD for IDO1 is 10^-15 M | calibration of nanoplatform fluorescence after 60 min. of incubation in HEPES buffer [2]: the concentration of IDO1 can be determined over the range from 10^-7 to 10^-14 M

B1: arginase II (enzyme, UniProt P78540 23-354, looked up, species assumed)
Arginase-2, mitochondrial: VHSVAVIGAPFSQGQKRKGVEHGPAAIREAGLMKRLSSLGCHLKDFGDLSFTPVPKDDLYNNLIVNPRSVGLANQELAEVVSRAVSDGYSCVTLGGDHSLAIGTISGHARHCPDLCVVWVDAHADINTPLTTSSGNLHGQPVSFLLRELQDKVPQLPGFSWIKPCISSASIVYIGLRDVDPPEHFILKNYDIQYFSMRDIDRLGIQKVMERTFDLLIGKRQRPIHLSFDIDAFDPTLAPATGTPVVGGLTYREGMYIAEEIHNTGLLSALDLVEVNPQLATSEEEAKTTANLAVDVIASSFGQTREGGHIVYDQLPTPSSPDESENQARVRI
limit of detection, TCPP fluorescence of the nanoplatform after 60 min. of incubation in HEPES buffer [3]: The limit of detection is estimated to 2×10^-16M arginase II | cyanine 7.0 fluorescence (FRET) of nanoplatform 1 after 1 h of incubation at 37° C. [4]: After incubation with arginase II, an increase in cyanine 7.0 fluorescence was observed | limit of detection from the calibration curve of FIG. 13 (nanoplatform 2, printed as nanoplatform 1) [4]: the LOD (limit of detection) of nanoplatform 1 is 10^-10 M | limit of detection of nanoplatform 1, quotient of integrated cyanine 5.5 and cyanine 7.0 fluorescence bands [4]: the LOD (limit of detection) of nanoplatform 1 is down to the picomolar level | limit of detection of nanoplatform 2, fluorescence increase over the whole range [4]: its LOD is only at 10^-7 M of arginase II concentration | limit of detection, TCPP fluorescence of the nanoplatform after 60 min. of incubation in PBS [5]: The limit of detection is 10^-15 M arginase II
